Test results: the DeepSol protein solubility set

assay: soluble on expression in E. coli; label from the status in PepcDB or PDB records

Sequence	soluble on expression in E. coli
MAHHHHHHMHTDDKQAQRYPRTSDAARVHSTLRVGQNTSDKVPYGRLSSQSGPGTPRGDLFPPSNGLSKVEGEETPAAGAWQYPSEPMATPNTRSVQLNGALPVKNEEGETKCSGDAIREEGTKDGGDGVIIGIDAAVEAGVLVANEESGKEDENRESNVNSTPCASGTNETIATATPTLSNATAASVVLTPAVPASTGLRASRRLLDFTGSTNVSNGPRAASRLFDVKPVGGGAQAASQGVGFLRLSKTVPSAASQAVSARMRTSRKNGPTLSATSRGHSSTAHENLPCRNDYTSLRLKEQRRRELYAWNEELRRQDKSDMSADAV	not soluble
MQCFNTIFRLFTDMDEDNEIGLPQKGINQIIKEVVPEMRIANESRDMINACCVEFVKHIAREAQRIASQDQRKTIYHEHVQKALQNLGFTPDYLEAADSVLDACKVEAEKKLRRKNSRLEKCGIPEEKLYEMQQELIQKARQQEIEQQLAHQQAQAAAVAAANAQMFGGPSEGSLAPTDDDYDN	soluble
MGSDKIHHHHHHMLKVSDLRLKYPNGQRKIFDHLNITIQDKEKVLLLGPSGCGKSTLLNVLSGIVPNLIELPMKYDELIVDPLSGVIFQDPDSQFCMPKVYEELAFVLENRQVPREDMDALIINALNMVNLNVTPETYIKDLSGGMKQKLAIVETILQQSKTLFLDEPTAMLDVQATEDLWTKLIELWEDQTVVIVEHKVKHIWNHVDRVILMDYNGNIIADECPEIILQKYVHLLSEYGVWHPRAWEFAPSRVDFPTTNSHLLQFKNGRIIRGKSTLLSFSDLEIGLGEWITITGANGSGKTTLLESIMQLIKYQGDVYFENQRLTKIKHAAKHMYLVYQNPELQFITNSVYDEINIHFNHLSKDQSDDETIQLLKLLDLQNVKDQHPYELSIGQKRRLSVATALSSKADIIFLDEPTFGLDSHNTFQLIKLFQKRINLGQSIVMVTHDDEIIERYPSRRLKISDGALLDCDGDTNV	not soluble
TIVYDKDGDKAGELSSTDATFVSIDKISKNLQNAVVSIEDRRFYEHKGFDLKGIARAGVNLITNGGISGGGSTITQQLAKNALLTQEQTFTRKAKEIFMAREIEKTYSKDEIMEMYLNRSYFGNGEWGVENASLKYFGKPAADLNIPEAATIAGLLQAPSAYDPYQHI	not soluble
MAHHHHHHMNGRYVPQEVLGTGTYGRVLRCNDVLTGRQVAVKVSQRDAAYRRSAMNEIRVLQLLSHTDNALKMFDFFEDSGHLCIASELLCTDFYEVLRKNGFQPLSLDTVRIVGERVLRALAELHKAGYMHCDIKPANVMLRFNETDRSNLSDFTKTCLIDFGAARQFHENTYYDVQSLWYRAPEVMLGLPYTSHIDSWSVGCLLFELYTGKPLFAGENPREQMTSIMCTVGMPPMEAFSSGANVEKLQLPCLAMDVNAEANLRNLIASYRCNNTGFNHSYQLVGEESAFVNLLCALLQPDVRWRLSCTDALHHAFFTSRCLYHGNIVSANFSVFSPSSNGLQSSIDSNFGAVFSSTGNDARGFGGFEHLVPQQTQPHPNPHPQPRLKSESSPILPANSNSVPLVGLVGSPPGMVLPGTRPPASSQVNIPSSRVVLQNVMYPTPPMKIIQPVPFNTQQSQKALQQPQRVSANMLPVMVSAIGNPYSFPPCVRPECQVQNWEPVIFQPQQQIPPEVTPMFQCKILPGGCQYNYQGGADPSFYGASIKSGLHSAVYVPS	not soluble
MSLSVKRVLRNTIRKEKEENRVTEPLTETPELSAKYAWFFDLDGTLAEIKPHPDQVVVPDTILQGLQLLATASDGALALISGRSMVELDALAKPYRFPLAGVHGAERRDINGKTHIVHLPDAIARDISVQLHTVIAQYPGAELEAKGMAFALHYRQAPQHEDALMTLAQRITQIWPQMALQQGKCVVEIKPKGTSKGEAIAAFMQEAPFIGRTPVFLGDDLTDESGFAVVNRLGGMSVKIGTGATQASWRLAGVPDVWSWLEMITTALQQKRENNRSDDYESFSRSIEGHHHHHH	soluble
MSLHWSFPEMIRLFSDEYRSSMLSEGNFGVERESQRVNYSGDLALTPHPSVFGDKFENPRITTDFSESQIEMITPPLKSAEEVYKALNDINNEVKNALKGELLWPLSMPPRLPKEEDIPVAQFPDTEDGRQKQIYRNGLALRYGKKMQMISGIHYNFSFSDKMIDFIYRQLRIEKTKRQFIDEMYFSLTRNFLRYHWILIYLFGASPICDSTYNSVIFKELEKIEKCCPHCAGKIKNFNRYATSLRVSRFGYSDTDEKKYTVYFNSLREYETKIKKMMETESNKYSKLGIYKDGVQIQLNGNLLQSESEFYAPIRFKRNIKKGETQLTALVNRGVEYIEIRILDVNPFDKVGISVEQMNFLQVFNVFCLFEESKSIDEEQMERINTNHQLAALLGRNEDLMLYKYNDDSRIPLKNFGDEIFEKLRIVAKLMDKDNVEKKYSESVESEYKKLHNIELLPSERICREMDNDNRSYIQFGMEYAEAEGHHHHHH	not soluble
KRAGTVCSNCQTSTTTLWRRSPMGDPVCNACGLYYKLHQVNRPLTMRKDGIQTRNRKVSSKGKKRR	soluble
MGSDKIHHHHHHMLKVRHLEIFRAVVKAGSVSAAARLLYVSQPAVTKTLRMLEEEIGLTLFLRVKGRLVCTPEAESILPEIERLFGSVQSIAETAREIRQGQRGSIRVSTVSMLATTIVARAVGEFRKTHPYVEFDVRALPTRHVVEYVNNNQADFGILDVAAPSGTLEVEEFCSADLRCVMRAAHPLASRKTITPRLLDNEALATFGEDTLTGWRLREAFRAQGRPFTSVFVSNSTPVLCALVREADAVALVDPFALMSRSFPDLVSRRFSPSVPVQPRFLFAPGRPRSVIVDQFVSQLRKTAGEMAMG	not soluble
WLDHVQNLVPGLDRQGLLEACEFARESEQRAIAAQNSWAEGTSSFQTGLEIAEILADLKLDQESLVAAVIYRGVREGKITLEAVNKHFGPVVAKLIEGVLRMAAISASLNPRHSMVLGTQAQVENLRKMLVAMVDDVRVALIKLAERTCAIRAVKNADEEKRHRVAREVFDIYAPLAHRLGIGHIKWELEDLSFRYLEPDQYKQIAKLLHERRLDREQYIANVMSQLKEALAATGVQADLSGRAKHIYSIWRKMQRKGLDFSQIYDVRAVRVLVPEMRDCYTALGIVHTLWRHIPKEFDDYIANPKENGYRSLHTAVIGPEGKVLEVQIRTHSMHEEAELGVCAHWRYKGTDVKASSNHYEEKISWLRQVLEWHEELGDIGGLAEQLRVDIEPDRVYVFTPDGHAIDLPKGATPLDFAYRVHTEVGHNCRGAKINGRIVPLNYSLQTGEQVEIITGKHSGPSRDWLNSNLGYVTTSRARAKIVHWFKLQARDQNVAAGKALIERELSRLALPPVDFDRLAEKANVRTAEDMFAALGAGDLRLAHLVNYAQQLVEPDRDSEQLELIPRKPSKIGHGKRGDVQIQGVGNLLTQMAGCCQPLPGDPIVGYITLGRGVTIHRQDCATALQLAGREPERMIQVSWGPEPVRTYPVDIAIRAYDRSGLLRDVSQVLLNERINVLAVNTRSNKEDNTATMQLTIEIPGLDALGRLLARVSQLPNIIEARRNR	not soluble
MGSDKIHHHHHHLPLLLPVGSQILRNKMRSKPRILIALSSVGLGGAERQGLMFAEYLKCKHSFDVLVSTFGGEGKVSLLCKETGIQHVNIAYPLLGHRWEVWWKLISTALTLRKIKPDCIVSYCMPANAACAAVWRLTGARACIWGQRDAGLQKELLTPIPLAPRLATCFVSNSPHGAAFLENQLAIPRHKISTIPNAVKLNVAQLSRTEWRSRLKISHDAMIVTMVSNLSFRKDHETLLKAWRIGLDNQLFPQNTKLVLCGRDDSNAPVIRKLAGKLHLDNHIRFAGATDDVAGILNASDIAAFSFISEGLPNVVIESMAAGLPVVATDIPGVRAAIGSCDDNILVPPKDPAAMAHGIAKILQDPALRSRAAAANITQATSTFAPDVVFSAFAKLILSNI	not soluble
MGHHHHHHSHMRSVSYVQRVALEFSGSLFPHAICLGDVDNDTLNELVVGDTSGKVSVYKNDDSRPWLTCSCQGMLTCVGVGDVCNKGKNLLVAVSAEGWFHLFDLTPAKVLDASGHHETLIGEEQRPVFKQHIPANTKVMLISDIDGDGCRELVVGYTDRVVRAFRWEELGEGPEHLTGQLVSLKKWMLEGHHDKPGITQGTGIAIVNK	not soluble
MVYSWQHCPNTRSNTEAMMAHDWDEYAANWEKDPATHAFAQSVFEHLTKILSLQGKHILDFGCGTGLLSQRMSPFARDIVALDSSEAMIEELDRKELRNVEPVVDCLTRGLVAQHPAFRKQFDLVVASSVCAFLPNLQDVTDIIFTLVDEGGYFVHFDWLADGKSEIGLSTTEIESVLRNAGFSAVETRVAFDVTTAQGTQPVVVGIARK	not soluble
